# Measured values from article PMC11324726, “Structural dynamics of protein-protein association involved in the light-induced transition of Avena sativa LOV2 protein” (Nature Communications, 2024).
# Numbering of substitutions follows the chain as printed. Numbers in names are those of the source.
# B1: AsLOV2 (residue 404-546) I427V mutant (domain or fragment, Avena sativa, UniProt O49003 404-546, looked up)
# chain: LATTLERIEKNFVITDPRLPDNPVIFASDSFLQLTEYSREEILGRNCRFLQGPETDRATVRKIRDAIDNQTEVTVQLINYTKSGKKFWNLFHLQPMRDQKGDVQYFIGVQLDGTEHVRDAAEREGVMLIKKTAENIDEAAKEL
# notes: Avena sativa phototropin 1, residues 404-546, with I427V (faster photocycle); Carries FMN; Cys-FMN photoadduct in the light state; also called AsLOV2 I427V
# B2: Avena sativa phototropin 1 LOV2 domain with A'α and Jα helices (residue 404-546), wild type (domain or fragment, UniProt O49003 404-546, looked up)
# chain: B1 chain with V24I
# notes: Avena sativa phototropin 1 (AsPhot1), A'α helix (404-412) + LOV2 core (413-520) + Jα helix (521-546), residues 404-546; Carries FMN as chromophore; in the light state a Cys-FMN photoadduct is formed; also called AsLOV2; AsLOV2 WT
# How the values were obtained:
# [1] = biological target: the molecule itself; experiment: time-resolved X-ray liquidography (TRXL, TR-SAXS/WAXS); in solution; ns laser pump at 450 nm, X-ray probe; 1.5 mM protein in 20 mM Tris pH 7.0, 200 mM NaCl, 293 K; monomers (I2) to dimer (P); kinetic analysis by SVD and KCA, structural analysis aided by MD
# [2] = biological target: the molecule itself; experiment: SEC; light state; monomer and dimer fractions by elution volume; conditions in Supplementary Note 3 and Supplementary Methods (not shown)
Protein,stoichiometry N [1],stoichiometry N [2]
B1,2,
B2,,2
